Source: US20180051053A1

Molecular target: Protein G (Protein G UltraLink resin, Pierce) (group G streptococci) (UniProt P19909)
Test: depletion of 100 µg IgG by Protein G resin beads (10 µL suspension); supernatant read by SDS-PAGE band pixels

IgG (antibody)
remaining antibody amount (unbound IgG left in supernatant): 3%
